± gives the uncertainty stated by the source.
Assay: self-splicing fitness, log relative to wild type (ln ratio); higher = more splicing; Tetrahymena group I intron in knt gene, E. coli kanamycin selection, DiMSum; sequences stand for … in CUCUCU…GGAGGGAAAAGUUAUCAGGCAUGCACCUGGUAGCUAGUCUUUAAACCAAUAGAUUGCAUCGGUUUAAAAGGCAAGACCGUCAAAUUGCGGGAAAGGGGUCAACAGCCGUUCAGUACCAAGUCUCAGGGGAAACUUUGAGAUGGCCUUGCAAAGGGUAUGGUAAUAAGCUGACGGACAUGGUCCUAACCACGCAGCCAAGUCCUAAGUCAACAGAUCUUCUGUUGAUAUGGAUGCAGUUCACAGACUAAAUGUCGGUCGGGGAAGAUGUAUUCUUCUCAUAAGAUAUAGUCGGACCUCUCCUUAAUGGGAGCUAGCGGAUGAAGUGAUGCAACACUGGAGCCGCUGGGAACUAAUUUGUAUGCGAAAGUAUAUUGAUUAGUUUUGGAGUACUCGUGGUCG
In short: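 A randomised library covering all eight P1ex-region intron nucleotides was built with the intron in the knt kanamycin-resistance gene on pET-22b(+) and held in E. coli BL21(DE3). Cells were grown overnight at 37°C or 30°C on LB agar, with or without 25 μg/mL kanamycin, plus 100 μg/mL carbenicillin, 50 μM IPTG and 0.2% rhamnose, and pooled colonies were amplicon-sequenced on an Illumina HiSeq 2500. DiMSum fitness is the error-weighted combination of wild-type-normalised replicate fold changes, kanamycin versus none.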

| Sequence | self-splicing fitness (ln) (30 °C) | self-splicing fitness (ln) (37 °C) |
| --- | --- | --- |
| UCAGAGCAAUAUUACGUCGG | -1.87 ± 0.2 | -0.479 ± 0.16 |
| UAAAAGCAAUAUUACGCACG | -0.983 ± 0.079 | -0.0988 ± 0.1 |
| GCCGAGCAAUAUUACGAGCA | -1.93 ± 0.11 | -0.944 ± 0.11 |
| UUUUAGCAAUAUUACGUAAA | -1.52 ± 0.17 | -0.431 ± 0.23 |
| CAAGAGCAAUAUUACGUGCU | -4.39 ± 0.31 | -2.36 ± 0.17 |
| CCAAAGCAAUAUUACGUAUC | -1.28 ± 0.11 | -2.76 ± 0.24 |
| AUCAAGCAAUAUUACGGUUC | -3.53 ± 0.24 | -2.01 ± 0.13 |
| AGGUAGCAAUAUUACGCCCU | -3.56 ± 0.048 | -2.45 ± 0.058 |
| CCACAGCAAUAUUACGUCUC | -3.01 ± 0.17 | -2.66 ± 0.16 |
| GCGCAGCAAUAUUACGGCCG | -2.99 ± 0.38 | -2.26 ± 0.26 |
| CCACAGCAAUAUUACGCAUC | -3.23 ± 0.19 | -2.31 ± 0.2 |
| GGAAAGCAAUAUUACGCAUG | -1.24 ± 0.084 | -0.813 ± 0.11 |
| UCCGAGCAAUAUUACGCUAA | – | -2.86 ± 0.32 |
| ACUGAGCAAUAUUACGAUGU | -2.83 ± 0.14 | -2.67 ± 0.2 |
| AAGCAGCAAUAUUACGCCCG | -0.844 ± 0.21 | 1.38 ± 0.32 |
| UAACAGCAAUAUUACGCACA | -0.339 ± 0.069 | 0.114 ± 0.099 |
| GCCUAGCAAUAUUACGUGUA | -1.55 ± 0.086 | -0.545 ± 0.088 |
| CUGCAGCAAUAUUACGGAGA | -3.35 ± 0.22 | -2.83 ± 0.34 |
| ACCGAGCAAUAUUACGUUGA | -2.98 ± 0.17 | -2.59 ± 0.21 |

| Sequence | self-splicing fitness (ln) (30 °C) | self-splicing fitness (ln) (37 °C) |
| --- | --- | --- |
| ACUUAGCAAUAUUACGAUUA | -1.05 ± 0.13 | -1.55 ± 0.13 |
| GUCUAGCAAUAUUACGAGUG | -1.99 ± 0.1 | -1.05 ± 0.1 |
| UUCUAGCAAUAUUACGUAAG | -2.51 ± 0.15 | -0.938 ± 0.15 |
| GCACAGCAAUAUUACGUAUC | -0.923 ± 0.061 | -0.833 ± 0.066 |
| UGCCAGCAAUAUUACGGCAC | -2.9 ± 0.33 | -2.56 ± 0.3 |
| CAGCAGCAAUAUUACGCGCU | -3.39 ± 0.21 | -2.45 ± 0.16 |
| GAAUAGCAAUAUUACGAGCU | -1.21 ± 0.081 | -0.335 ± 0.1 |
| UGGGAGCAAUAUUACGGCUG | -1.09 ± 0.19 | -2.31 ± 0.26 |
| UGGAAGCAAUAUUACGUGUA | -2.12 ± 0.099 | -0.482 ± 0.1 |
| ACGUAGCAAUAUUACGGGCC | -2.66 ± 0.14 | -0.629 ± 0.12 |
| UAGAAGCAAUAUUACGGUUU | -3.09 ± 0.17 | -2.28 ± 0.16 |
| AGAAAGCAAUAUUACGUCCU | -0.0571 ± 0.065 | 0.432 ± 0.089 |
| GGGAAGCAAUAUUACGAAAC | -0.695 ± 0.14 | -0.469 ± 0.17 |
| AUGUAGCAAUAUUACGGGUC | -3.49 ± 0.4 | -2.95 ± 0.43 |
| CUCAAGCAAUAUUACGCCUU | – | -3.47 ± 0.39 |
| AUAGAGCAAUAUUACGGCUC | -0.971 ± 0.11 | -0.403 ± 0.23 |
| GUAUAGCAAUAUUACGAAAU | -3.05 ± 0.25 | -1.63 ± 0.22 |
| AAGCAGCAAUAUUACGCUAC | -2.96 ± 0.24 | -2.31 ± 0.24 |
| ACGAAGCAAUAUUACGUGAU | -2.04 ± 0.054 | -0.989 ± 0.072 |

— the supplement of paper PMC7877785
